In patent US20200277392A1 (Hoffmann-La Roche, published 2020):
Numbering of substitutions follows the chain as printed.

B1: 49B4/TnC 18D4 P329GLALA 4 + 1 (ID7745) (bispecific antibody, human IgG1, kappa, L234A L235A)
heavy 1: not shown
heavy 2: not shown
light: DIQMTQSPSTLSASVGDRVTITCRASQSISSWLAWYQQKPGKAPKLLIYDASSLESGVPSRFSGSGSGTEFTLTISSLQPDDFATYYCQQYSSQPYTFGQGTKVEIKRTVAAPSVFIFPPSDEQLKSGTASVVCLLNNFYPREAKVQWKVDNALQSGNSQESVTEQDSKDSTYSLSSTLTLSKADYEKHKVYACEVTHQGLSSPVTKSFNRGEC
B2: anti-OX40 clone 17A9, Fab (Fab, V domains shown)
VH: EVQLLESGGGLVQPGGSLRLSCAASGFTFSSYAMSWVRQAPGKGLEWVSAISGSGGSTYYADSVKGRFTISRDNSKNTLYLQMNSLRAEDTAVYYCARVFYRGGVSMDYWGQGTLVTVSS
VL: SSELTQDPAVSVALGQTVRITCQGDSLRSYYASWYQQKPGQAPVLVIYGKNNRPSGIPDRFSGSSSGNTASLTITGAQAEDEADYYCNSRVMPHNRVFGGGTKLTV
notes: Flag-tagged Fab in bacterial supernatant (phage library lambda-DP47); also called OX40(17A9)
B3: anti-OX40 clone 20B7, Fab (Fab, V domains shown)
VH: QVQLVQSGAEVKKPGSSVKVSCKASGGTFSSYAISWVRQAPGQGLEWMGGIIPIFGTANYAQKFQGRVTITADKSTSTAYMELSSLRSEDTAVYYCARVNYPYSYWGDFDYWGQGTTVTVSS
VL: DIQMTQSPSTLSASVGDRVTITCRASQSISSWLAWYQQKPGKAPKLLIYDASSLESGVPSRFSGSGSGTEFTLTISSLQPDDFATYYCQQYQAFSLTFGQGTKVEIK
notes: Flag-tagged Fab in bacterial supernatant (phage library DP88-4); also called OX40(20B7)
B4: anti-OX40 clone 49B4, Fab (Fab, V domains shown)
VH: QVQLVQSGAEVKKPGSSVKVSCKASGGTFSSYAISWVRQAPGQGLEWMGGIIPIFGTANYAQKFQGRVTITADKSTSTAYMELSSLRSEDTAVYYCAREYYRGPYDYWGQGTTVTVSS
VL: B3 VL with Q92S, A93S, F94Q, S95P, L96Y
notes: Flag-tagged Fab in bacterial supernatant (phage library DP88-4); also called OX40(49B4)
B5: anti-OX40 clone 8H9, Fab (Fab, V domains shown)
VH: QVQLVQSGAEVKKPGSSVKVSCKASGGTFSSYAISWVRQAPGQGLEWMGGIIPIFGTANYAQKFQGRVTITADKSTSTAYMELSSLRSEDTAVYYCAREYGWMDYWGQGTTVTVSS
VL: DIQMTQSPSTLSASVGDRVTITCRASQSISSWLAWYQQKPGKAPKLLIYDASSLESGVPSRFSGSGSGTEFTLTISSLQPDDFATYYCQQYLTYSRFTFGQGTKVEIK
notes: Flag-tagged Fab in bacterial supernatant (phage library DP88-4); also called OX40(8H9)
B6: anti-OX40 clone 1G4, Fab (Fab, V domains shown)
VH: B5 VH with W102S
VL: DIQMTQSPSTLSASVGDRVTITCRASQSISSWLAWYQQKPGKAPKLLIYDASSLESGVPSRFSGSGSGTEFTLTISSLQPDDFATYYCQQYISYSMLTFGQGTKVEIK
notes: Flag-tagged Fab in bacterial supernatant (phage library DP88-4); also called OX40(1G4)

target: T1, human OX40 Fc(kih), monomeric Fc-linked human OX40 antigen ECD (human, UniProt P0DOX5 223-449 = IgG part); test: SPR (Biacore T200, 25 °C): bispecific held on immobilised human TnC; human OX40 Fc(kih) at 250 nM injected for 90 s as analyte 2
T1 construct: Heterodimer of one OX40 ECD (aa 29-214)-AcTEV-Fc knob-Avi chain and one Fc hole chain; Biotinylated at the Avi tag for phage selection and ELISA; also called recombinant OX40 Fc (kih) receptor; biotinylated human OX40
Protocol: All SPR experiments were performed on a Biacore T200 at 25° C. with HBS-EP as running buffer (0.01 M HEPES pH 7.4, 0.15 M NaCl, 3 mM EDTA, 0.005% Surfactant P20, Biacore, Freiburg/Germany).
Biotinylated human TnC was directly coupled to a flow cell of a streptavidin (SA) sensor chip. Immobilization levels up to 1000 resonance units (RU) were used.
Bulk refractive index differences were corrected for by subtracting the response obtained in a reference flow cell, where no protein was immobilized.

Binder | binding result
B1 | binds

target: T1, human OX40 Fc(kih), monomeric Fc-linked …; test: ELISA, Fab-containing bacterial supernatants on biotinylated human OX40 on neutravidin plates, anti-Flag/HRP detection
Protocol: Selections were carried out over 3 or 4 rounds using constant antigen concentrations of 100 nM. […] In rounds 2 and 4, in order to avoid enrichment of binders to neutravidin, capture of antigen: phage complexes was performed by addition of 5.4×10⁷ streptavidin-coated magnetic beads. […] Fab-containing bacterial supernatants were added and binding Fabs were detected via their Flag-tags using an anti-Flag/HRP secondary antibody. […] They were bacterially expressed in a 0.5 liter culture volume, affinity purified and further characterized by SPR-analysis using BioRad's ProteOn XPR36 biosensor.

Binder | binding result
B2 | binds
B3 | binds
B4 | binds
B5 | binds
B6 | binds
